Results on five molecules are retold here after patent publication EP4541822A2 (Tsinghua University, dated 2025).

The chains are these.
B3: recombinant protein (SH3)5-DNB (other)
chain: MKHHHHHHHENLYFQGHMDLNMPAYVKFNYMAEREDELSLIKGTKVIVMEKSSDGWWRGSYNGQVGWFPSNYVTEEGDSPLASGAGGSEGGGSEGGTSGATDLNMPAYVKFNYMAEREDELSLIKGTKVIVMEKSSDGWWRGSYNGQVGWFPSNYVTEEGDSPLASGAGGSEGGGSEGGTSGATHMDLNMPAYVKFNYMAEREDELSLIKGTKVIVMEKSSDGWWRGSYNGQVGWFPSNYVTEEGDSPLASGAGGSEGGGSEGGTSGATDLNMPAYVKFNYMAEREDELSLIKGTKVIVMEKSSDGWWRGSYNGQVGWFPSNYVTEEGDSPLASGAGGSEGGGSEGGTSGATDLNMPAYVKFNYMAEREDELSLIKGTKVIVMEKSSDGWWRGSYNGQVGWFPSNYVTEEGDSPLGGSGGSGGSGGSMEVQLLESGGGLVQPGGSLRLSCAASGTFDKINNMGWYRQAPGKQRDLVAQITPGGITDYADSVKGRFTISRDNSKNTLYLQMNSLRPEDTAVYYCNAEILKRAYIDVYVNYWGQGTLVTVSS

Assay [1] has as its target T1, recombinant protein (SUM)5-DNB.
T1 construct: The entry also holds a 7xHis tag and TEV site; Labelled with Alexa647 for imaging; also called (SUM)5-DNB (Green)
As to the kind of experiment: fluorescence imaging of SJSA-1 cells, 100 nM (Figs. 3A, 3B).

Assay [2] addresses T2, CXC motif chemokine receptor 4 (CXCR4) (human, UniProt P61073 1-352).
T2 construct: whole, on cells; Endogenous receptor on human tumour cell lines; also called chemokine receptor CXCR4
In words: fluorescence imaging of SJSA-1 cells with anti-CXCR4 immunostaining (Figs. 3A, 3B).

The target in assay [3] is B3. In words: confocal imaging of SJSA-1 cells, 100 nM each (Fig. 9A).
Another assay deals with death receptor 5 (DR5) (human, UniProt O14763 56-440). In words: cell-based or functional assay.
In assay [4] the target is T3, recombinant protein (SUM)3-DNB.
T3 construct: The entry also holds a 7xHis tag and TEV site; Green-labelled for imaging; unlabelled in the apoptosis assays; also called (SUM)3-DNB (Green)
In words: fluorescence imaging of SJSA-1 cells (Figs. 5A, 5B).

The target in assay [5] is T2, CXC motif chemokine receptor 4 (CXCR4). In words: fluorescence imaging of SJSA-1 cells with anti-CXCR4 immunostaining (Figs. 5A, 5B).
The target is the same in assay [6]. As to the kind of experiment: confocal imaging of SJSA-1 cells; membrane puncta with the ligand fusions, none with the multivalent domains alone.
Assay [7] deals with T4, multivalent domain (SUM)5.
T4 construct: Labelled with Alexa647 for imaging; also called (SUM)5 (Green)
T4 sequence (chain, as listed by the source): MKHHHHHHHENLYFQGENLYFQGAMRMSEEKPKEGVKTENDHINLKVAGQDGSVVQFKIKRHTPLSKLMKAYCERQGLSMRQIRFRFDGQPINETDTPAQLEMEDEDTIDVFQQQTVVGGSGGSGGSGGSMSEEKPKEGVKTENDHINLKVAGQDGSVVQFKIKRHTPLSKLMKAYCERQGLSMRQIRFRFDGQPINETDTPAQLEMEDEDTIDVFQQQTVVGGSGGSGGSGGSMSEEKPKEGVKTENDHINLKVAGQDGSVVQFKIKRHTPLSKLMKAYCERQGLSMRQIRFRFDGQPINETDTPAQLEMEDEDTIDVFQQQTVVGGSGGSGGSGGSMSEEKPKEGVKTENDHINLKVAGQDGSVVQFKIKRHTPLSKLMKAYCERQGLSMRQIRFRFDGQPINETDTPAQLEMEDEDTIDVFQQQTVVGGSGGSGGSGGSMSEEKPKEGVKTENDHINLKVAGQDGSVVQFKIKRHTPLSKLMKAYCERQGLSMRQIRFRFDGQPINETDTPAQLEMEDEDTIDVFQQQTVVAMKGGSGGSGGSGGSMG
In words: confocal imaging of SJSA-1 cells, (SIM)6-R4L (Red) plus (SUM)5 (Green), 100 nM each (Fig. 2A).

T2 sequence (P61073 whole entry): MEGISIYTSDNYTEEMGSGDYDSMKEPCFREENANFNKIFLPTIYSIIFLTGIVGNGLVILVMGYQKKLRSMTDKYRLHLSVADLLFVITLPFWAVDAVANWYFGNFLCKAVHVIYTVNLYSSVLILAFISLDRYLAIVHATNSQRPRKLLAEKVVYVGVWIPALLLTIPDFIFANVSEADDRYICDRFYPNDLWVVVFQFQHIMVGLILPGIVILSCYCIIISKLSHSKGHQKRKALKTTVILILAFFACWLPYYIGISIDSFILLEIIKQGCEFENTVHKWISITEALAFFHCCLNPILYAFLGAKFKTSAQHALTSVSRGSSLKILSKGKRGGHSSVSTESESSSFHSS

B1: recombinant protein (SIM)6-CNB (other)
chain: MKHHHHHHHENLYFQGAMSSKVDVIDLTIESSSDEEEDPPAKRGGSGGSGGSGGSKVDVIDLTIESSSDEEEDPPAKRGGSGGSGGSGGSKVDVIDLTIESSSDEEEDPPAKRGAMKGGSGGSGGSGGSMSSKVDVIDLTIESSSDEEEDPPAKRGGSVGSGGSGGSKVDVIDLTIESSSDEEEDPPAKRGGSGGSGGRGGSKVDVIDLTIESSSDEEEDPPAKRGAMRCWGGSGGSGGSGGSMGEVQLMESGGGLVQAGGSLRLSCAASGRTFNNYAMGWFRRAPKGEREFVAAITRSGVRSGVSAIYGDSVKDRFTISRDNAKNTLYLQMNSLKPEDTAVYTCAASAIGSGALRRFEYDYSGQGTQVTVSS
notes: The entry also holds a 7xHis tag and TEV site; Labelled with Alexa594 for imaging; also called (SIM)6-CNB (Red)
Turning to B1, the binding result in assay [1] and in assay [2] was “binds” in each case.

B2: recombinant protein (PRMH)5-CNB (other)
chain: MKHHHHHHHENLYFQGHMKGGSWGGSKKTPPPVPPRTTSKGGSGGSGGSGGSKKTPPPVPPRTTSKGGSGGSGGSGGSKKTPPPVPPRTTSKGGSGGSGGSGGSKKTPPPVPPRTTSKGGSGGSGGSGGSKKTPPPVPPRTTSKGGSGSKNLYFQGGSGGSGGSGGSMEVQLMESGGGLVQAGGSLRLSCAASGRTFNNYAMGWFRRAPKGEREFVAAITRSGVRSGVSAIYGDSVKDRFTISRDNAKNTLYLQMNSLKPEDTAVYTCAASAIGSGALRRFEYDYSGQGTQVTVSS
notes: The entry also holds a 7xHis tag and TEV site; Labelled with Alexa594; also called (PRMH)5-CNB (Red)
On to B2, for which the binding result in assay [3] is given as “binds”.
Consider B3, for which the “apoptotic ratio of SJSA-1 cells, Annexin V-FITC/PI flow cytometry, 4 h; (SH3)5-DNB (Green) added together with (PRMH)5-CNB (Red) at 100 nM” value in the assay with death receptor 5 (DR5) is roughly 58.4%.

B4: recombinant protein (SIM)3-CNB (other)
chain: MKHHHHHHHENLYFQGAMKVDVIDLTIESSSDEEEDPPAKRGGSGGSGGSGGSMMKVDVIDLTIESSSDEEEDPPAKRGGSGGSGGSGGSMMKVDVIDLTIESSSDEEEDPPAKRGGSGGSGGSGGSMGEVQLMESGGGLVQAGGSLRLSCAASGRTFNNYAMGWFRRAPKGEREFVAAITRSGVRSGVSAIYGDSVKDRFTISRDNAKNTLYLQMNSLKPEDTAVYTCAASAIGSGALRRFEYDYSGQGTQVTVSS
notes: The entry also holds a 7xHis tag and TEV site; Red-labelled for imaging; also called (SIM)3-CNB (Red)
Turning to B4, the binding result in assay [4] and in assay [5] was “binds” each time.

B5: recombinant protein (SIM)6-R4L (other)
chain: MKHHHHHHHENLYFQGAMSSKVDVIDLTIESSSDEEEDPPAKRGGSGGSGGSGGSKVDVIDLTIESSSDEEEDPPAKRGGSGGSGGSGGSKVDVIDLTIESSSDEEEDPPAKRGAMKGGSGGSGGSGGSMSSKVDVIDLTIESSSDEEEDPPAKRGGSVGSGGSGGSKVDVIDLTIESSSDEEEDPPAKRGGSGGSGGRGGSKVDVIDLTIESSSDEEEDPPAKRGAMRCWGGSGGSGGSGGSMGMCYRKCRGGRRWCYQKCGGSGGSGGSGGS
notes: also called (SIM)6-R4L (Red)
On to B5, for which the binding result in assay [6] and in assay [7] was “binds” each time.
